Results published in the DeepSol protein solubility set.

Test: soluble on expression in E. coli; label from the status in PepcDB or PDB records

| Sequence | soluble on expression in E. coli |
| --- | --- |
| MGSSHHHHHHSSGLVPRGSHMASKRCRQCSGDSASSSTSSLSPSELPPSKKAAGGQRVTAEVEVAPITTDATSATVTAAGGAKKKATTGSPARRTSSAAKITNGDAGELIRTAEALAALNAKKSEKEIWSDVVPFVRRTTDSDFDPSRMYKFITWNVAGLRGLLKKNASALRAFMEAEKPDVLCLQETKLNVDEADANATLGVVDGYSFVDHPCAFKRGYSGTRTYMKNSTTVKGLHARCTRGFALPSEPQADAAAGSRVLVEGAGDEEGRVLTTFLSPDPDSASSSSRIALVNTYVANSGMGLTRLPYRVQSFDPSMREYLHRLDTWATENAAVPSAAAMGSGSSPHGFIWAGDLNVAERDYDRYYAGTFKSMQECSGFAPEERMSFRETMQRTNSVDIFRQLYPQAGPVYSFWSQRINGRPRNLGWRLDYFVVSSRLASYVVDCFPMPTVMGSDHCPFQMWMRHP | soluble |
| MAGDPMGTLKLIQYPSQLLSLTISDIINKQNLSQLIQKSKKDDSENWEGKDWIIKNTPQQGINWIGEHPNIKAVIIKTKDGSYADDGWKNNEKTIYSYSFKAAKGIINFNDSANRVLINQPISNYPILLFTDSSNKWEFQGCFKIIDILEKAVILEKMISFPSLNDKNSDNDDVILYKNEHTEGKIKYITHMLSERNRKIIDEIKDNSQWVCDICEIKFLDKYGKNYIEAHHKIPIHTFTGEHRILKTDFALLCPNCHKAVHIYLREENLQYEEAKIKIRNILKRLEHHHHHH | not soluble |
| MTEKKKRGLLSWLGFGDEEKSQTTATDTQTQDEPQSQADVEAVAIQTETALTETETETETETETETETETATVEPARIVEQEKPTESFFARLKRSLSRTKANIGAGFFGLFKGKKIDDDLFEELEEQLLIADVGMDTTSKIIANLTARASRQQLRDGEALYGLLKEEMAEILSQVEQPLVIDTEKKPYVILMVGVNGVGKTTTIGKLAKQFQAQGKKVMLAAGDTFRAAAVEQLQVWGERNQVPVIAQHTGADSASVIYDAIEAAKARGIDVVIADTAGRLQNKSNLMEELRKIVRVMKKIDDSAPHEIMLTLDAGTGQNAISQAKLFSDVAPITGITLTKLDGTAKGGVIFAIADQFQIPIRYIGVGEKIDDLRPFATQEFIDALFSREE | not soluble |
| MRQQTCTTVTLRQRPIRNGRISLYLDYYPAVRNPKTMKLSRREYLGFYIYATPKNAIELDYNNEILAKAELIRCRRQEAVINEEFGFMDRHKMRADFMAYFKEVCRKKDHKWHIVYLHFEKFVNGKCMFGEITVDLCNRFRDYLLHARQLKHTDKMVSRNSAASYFSLFRGVLKLAYRDKYLRENPNDFLEKIESRDIHKEFLTQDELKTLASTPCDIPVLRNASLFSCLTGLRISDILNLKWENLCTAPDLGHCIRLRTQKTQTEALLPISYEAYALCGEPGTGKVFKELRRCMTGYPLKAWIKKAGIQKHITFHCLSHSKLFYLLNISELSILKNVTANDLETSYILFLSQLCNIQRTL | not soluble |
| MAEHGETQADEEEEEQVWSWGAGTDGQLGTTKLQDELLPQLLSLTSLPSISMLACGGAHVIALTSGGKVFTWGRGSSGQLGHGDILNITLPKLVSFFDDSVITQAAAGWSHSGFVSDSGCIFTCGNGSFGQLGHGDTLSLSTPAKVSHFNNDSVKMVACGMRHSLVLFAGNQVCGFGSGKRGQLGFSSDRIKSVNLPCVVSGLKDVEVVRISANGDHSAAISADGQFFSWGRGFCGGPDVHAPQSLPSPLSFREVAVGWNHALLLTVDGEVFKLGSTLNKQPEKQQLQIDSSEALFEKVPDFDGVKVMQIAAGAEHSAAVTENGEVKTWGWGEHGQLGLGNTNDQTSPELVSLGSIDLRTKEIKVYCGSGFTYAVKRKQELSPTSS | soluble |
| MSLKPFGLFAICVAFAGCGDTSWWSKNDDPELKSEQIRKLIPSRVHDRQSWANDINDIMEKLKIPKTKDNVCSVVAIVDQESNFVANPVVAGLGEKAVKEVSTRLNEKFEEKLGTTIGGQVAGYFEDVLKNQPTPDDNYMSQMRRVRTEKDLDVLYRQIFDYMASHYHVSALTGAAKLVGQDIAEKMNPITTLGSMQVNIVYAKENKRVKLQSVNNLRDDLYTQYGGLYYGIHRLMLYQTSYDKPIYRFADYNSGMYSSRNAALQSMLNKLGDEQLTEDGDLLLYNKDGSIQSTRSSSEKALIKIFTLNNVLLTPNQIRTDLKQEKSQSFEQTPTYIAITKLYQKQTGKEAPYAMMPQVIISGPKLSRDYNTNWYASRVNGRYQTCMQRAKRIKEGHHHHHH | soluble |
| MGSDKIHHHHHHMPENDFFAGIDAQLDTWEFRTLADAFKPRPPLQYAITGLFTLPSLTIVFGAPGTLKSMLLGSAALHVAGGLPWLGRKVKAFPTMWLDMDNGKRRTDERFEALARHLGLNEGTPFFYISMPTPMFNAGDTGDTEAMVNRMISRGIKLLFIDNLGLISPGADENSDAMVKVMGNLRLLAERTDAAVVIIHHQRKKSKQTQTARTGETLRGHSSIEASLDLALLVEREFDSDIITVHSTKTRDTEVRPFAAEWRYEHKPGTDELETAGFVSAEGENSSETVLEKAIIETVSSNALINQTKLKDDVMKLTGIGRNQVINMIRALEVRKALNVKPGSNNEKLYYIE | not soluble |
| MSNHQVALQFEDGVTRFICIAQGETLSDAAYRQQINIPMDCREGECGTCRAFCESGNYDMPEDNYIEDALTPEEAQQGYVLACQCRPTSDAVFQIQASSEVCKTKIHHFEGTLARVENLSDSTITFDIQLDDGQPDIHFLAGQYVNVTLPGTTETRSYSFSSQPGNRLTGFVVRNVPQGKMSEYLSVQAKAGDKMSFTGPFGSFYLRDVKRPVLMLAGGTGIAPFLSMLQVLEQKGSEHPVRLVFGVTQDCDLVALEQLDALQQKLPWFEYRTVVAHAESQHERKGYVTGHIEYDWLNGGEVDVYLCGPVPMVEAVRSWLDTQGIQPANFLFEKFSAN | soluble |
| NRFIGYIQVACCCLLLCASCVRDGMDEDCNSYVRFVYDYNLEYIDLFHKQATKMNLYVFDEKGVFVTELKEESGAFAPDYLMTLPGAMAGRRYIFVAWSGLYGESYDKVTLTPGVSTLEDLEVSVNNLKTRIGGGVVDRELHLLWHGKQTEVSPQYNNDITTVSLLKNTKKFRIIMQMLDDSSIHVDDYDFRIISPNGRYNHENGLLGDETDEKVEYTAYHTEDDPETGAIAELNTLRLMTDTENRLVITHKSSGNVILDIPLNKYLNALRLQQYADIPLQEYLDRADKHGIILFFKGMDGNGNYISVDVQINGWLIRKQEVD | not soluble |
| SLQSIIGKHKDEGKITPEYLKKIDAYWRAANFISVGQLYLLDNPLLREPLKPEHLKRKVVGHWGTIPGQNFIYAHLNRVIKKYDLDMIYVSGPGHGGQVMVSNSYLDGTYSEVYPNVSRDLNGLKKLCKQFSFPGGISSHMAPETPGSINEGGELGYSLAHSFGAVFDNPDLITACVVGDGEAETGPLATSWQANKFLNPVTDGAVLPILHLNGYKISNPTVLSRIPKDELEKFFEGNGWKPYFVEGEDPETMHKLMAETLDIVTEEILNIQKNARENNDCSRPKWPMIVLRTPKGWTGPKFVDGVPNEGSFRAHQVPLAVDRYHTENLDQLEEWLKSYKPEELFDENYRLIPELEELTPKGNKRMAANLHANGGLLLRELRTPDFRDYAVDVPTPGSTVKQDMIELGKYVRDVVKLNEDTRNFRIFGPDETMSNRLWAVFEGTKRQWLSEIKEPNDEFLSNDGRIVDSMLSEHLCEGWLEGYLLTGRHGFFASYEAFLRIVDSMITQHGKWLKVTSQLPWRKDIASLNLIATSNVWQQDHNGYTHQDPGLLGHIVDKKPEIVRAYLPADANTLLAVFDKCLHTKHKINLLVTSKHPRQQWLTMDQAVKHVEQGISIWDWASNDKGQEPDVVIASCGDTPTLEALAAVTILHEHLPELKVRFVNVVDMMKLLPENEHPHGLSDKDYNALFTTDKPVIFAFHGFAHLINQLTYHRENRNLHVHGYMEEGTITTPFDMRVQNKLDRFNLVKDVVENLPQLGNRGAHLVQLMNDKLVEHNQYIREVGEDLPEITNWQWHV | soluble |
| MAKIPVLEIFGPTIQGEGRVIGRKTMFVRTAGCDYRCSWCDSAFTWDGSAKEDIKLMTAEEIYDALLEIGGHRFNHVTISGGNPALIKGIQELVDLFEDKHIYTALETQGSRFQSWMTQIDDLTISPKPPSSGMKTNLEILDSVINQCTFHSLNLKVVIFDDADYDFAKLIHHRYPNIPFYLQVGNPYLDDNVDQHTDKLLERYEQLVDRVMQSSDMNHVYVLPQLHTLLWSNKKGV | not soluble |
| LFDLGHPLLNRIADSFVKAAGVGALQAVSREAYFTVVDGAGFDSNNVGPPSEITGNKKHRFPNLRGESSKSLDALVKNTGKESLQWGLAAGLYSGITYGMTEVRGGAHDWRNSAVAGALTGAAMAMTTSERTSHEQVVQSALTGAAISTAANLLSSVF | not soluble |
| MAHHHHHHMEAKAQAYLEKLSNSLQAAGRTATADVLKRAKEEFERSLWCEMTDDLLLAVRDPLVLESAYELHENVLKVTRMDMSPTAYVKLLHYICFCPNSTLQKALDLLNGAVVALSTSSEQGENMANCIRALLLLDSYNDKSSPAGTAASEASRILDKVESFIHSKQMHEVEPVLAALHCQARGKDYEIRQQYTKYYSNAFETVKSAERAEMPIIESDLLSLAYKAALSALLSEEIYNFGKFLNERHFTERLADSVQHAWILEWLRLCNDGKVEEFEQYAVAHKAEMAASPILSEFFPSITKKVRLMALLHLVFYTPFNERTFTFDVIARRCAVDEERVEPLLLAALAQGIIMGKIDGLTQEVHITWVEPRVLSLQEVKELAVHVSRWKEKTLGLMQCMKEAAQETHN | soluble |
| MKRLTAKEEEIMGFFWEKGPLFVKEILAFYDEPRPHFNTLSTIVRGLEEKGFLAHHTYGNTYQYYAVVSESDFSKRTLKSVISKYFNNSYLSAVSSLVKEEDISLDDLKKLIQEVEQKNEE | soluble |
| MKQGTVKWFNAEKGFGFIEVEGENDVFVHFSAINQDGYKSLEEGQAVEFEVVEGDRGPQAANVVKL | not soluble |
| MGSDKIHHHHHHMSGNESVVNYDHFIDKRRVRKAFERAAPLYDQAAVLQREVCDRMLSRLEYIKYMPDVVLDAGSGTGYGTCKLLERYPDASMLAIDIATGMHHQARQRMNSMIPRWRQLFGVGRNQRTSRVRYVAGDIEQLPLEDSCAGLVWSNLALQWCNDLKKTFDEMRRILKNGGLFMFSTFGPDTLKELRQAFRHADDYSHVNRFADMHDIGDMLVHSGFATPVMDMEYITLTYDEVISVMRDLKAIGAHNATGARHRGLTGKNAWQKAIGHYETLRTGGKLPATFEVVYGHAWKPAPRTSILTPETRRHIGLE | not soluble |
| MDKLGLSKRGYFDFALKNKKWILLAVSGYGAFRVYHSPSISQKRKRISKLFTLLLNLIEAASDSAETVSVISKDLTEFLRSDSDQIPNSLKQISKIAKSDELNSSLIRFTQAMTVGLIRGIDDGSGSGFTDRVMDKLFTKSGSGFASAIVGSFARNLVVALYSSAGDGSNSKLLDAVFSDDGRRLIGDCVQRFVSTAVSVYLDKTSDVNVFDDLFAGLTNPKHEGKVKQTLVTLCNSAVETFVRASRKPVQLNRSSSCQDSSQTLTVGSTKQATWIDRVSSSLSVPSNRKYVVDLTGRVTFETVRSLLEVLIERANGKVESYVEKVRERGNETRRFVRVKTSLLHSLCLSLCLQIVEAPWMLTPRN | not soluble |
| SGPWANICAGKSSNEIRTCDRHGCGQYSAQRSQRPHQGVDVLCSAGSTVYAPFTGMIVGQEKPYQNKNAINNGVRISGRGFCVKMFYIKPIKYKGPIKKGEKLGTLLPLQKVYPGIQSHVHIENCDSSDPTAYL | soluble |
| MGSDKIHHHHHHMTDSTIDALNKKLDRLIEAVGRLAPPPVPETDLAEADCFVWQADPGYLEPVRKVNRVDIGLIRGVDRVRDILVDNTERFAAGFAANNVLLWGARGMGKSSLVKAVHAEINAKSKSQKAKSDLPLKLIEIHREDIDTLPKLMGLLKAAPFRVILFCDDLSFDHDDTSYKSLKAALEGGVEGRPANVIFYATSNRRHLLPRDMIDNERSTAINPSEAVEEKVSLSDRFGLWLGFHKCSQDEYLEMVNAYASHHGLDIDPEQLRAEALEWATTRGSRSGRVAWQFTQDLAGRLGKPLKD | not soluble |
